According to US20240254220A1 (CENTRICSBIO, published 2024):
Changes are numbered by the printed parent chain. One block for each binder: values may come before it.

Tests used:
mouse CD300c = target: T1, mouse CD300c (mouse); experiment: cell-based or functional assay
T1 sequence (A2A7V7 whole entry, looked up): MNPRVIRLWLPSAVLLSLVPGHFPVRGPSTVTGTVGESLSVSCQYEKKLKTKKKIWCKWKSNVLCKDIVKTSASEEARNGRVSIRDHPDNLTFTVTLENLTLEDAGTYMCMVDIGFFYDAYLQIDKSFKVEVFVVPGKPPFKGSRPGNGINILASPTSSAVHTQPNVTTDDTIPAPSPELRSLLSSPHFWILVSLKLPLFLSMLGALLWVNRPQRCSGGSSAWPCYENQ

[1] = target: T2, CD300c antigen (11832-H08H, Sino Biological) (human, UniProt Q08708 21-183); experiment: binding ELISA, plate coated with CD300c antigen (8 µg/mL), HRP anti-Fc IgG detection
T2 construct: Bought antigen; also called CD300c protein; CD300 antigen-like family member C
T2 sequence (looked up): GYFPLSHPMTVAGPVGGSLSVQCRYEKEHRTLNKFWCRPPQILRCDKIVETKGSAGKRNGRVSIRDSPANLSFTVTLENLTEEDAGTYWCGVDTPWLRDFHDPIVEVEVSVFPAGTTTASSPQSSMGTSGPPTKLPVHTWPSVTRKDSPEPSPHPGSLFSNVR
Protocol: In order to identify the antigen-binding ability of the anti-CD300c monoclonal antibodies produced in Example 1, binding ELISA was performed. Specifically, a CD300c antigen (11832-H08H, Sino Biological) or a CD300a antigen (12449-H08H, Sino Biological) in a coating buffer (0.1 M sodium carbonate, pH 9.0) was dispensed into an ELISA plate at a concentration of 8 μg/mL per well, followed by incubation at room temperature for 3 hours to allow the antigen to be bound to the plate. The unbound antigens were removed by washing three times using phosphate buffered saline-Tween 20 (PBST), and then 300 μL of PBST supplemented with 5% bovine serum albumin (BSA) was added to each well, followed by incubation at room temperature for 1 hour and then washing using PBST. Then, an anti-CD300c monoclonal antibody was diluted in quadruplicate and added thereto, followed by incubation for 1 hour at room temperature for antigen binding. After 1 hour, washing was performed three times using PBST to remove unbound anti-CD300c monoclonal antibody, and then 4 μg/mL of an antibody for detection (HRP conjugated anti-Fc IgG) was added, followed by incubation again at room temperature for 1 hour. Subsequently, the unbound antibody for detection was removed using PBST, and then TMB solution was added, followed by incubation for 10 minutes for development. Then, 2 N sulfuric acid solution was added to terminate the development reaction, and the absorbance was measured at 450 nm to identify the antibodies specifically binding to the CD300c antigen.

[2] = target: T2, CD300c antigen (11832-H08H, Sino …); experiment: selection ELISA of Example 1.2, scFv periplasmic extract on coated CD300c antigen
Protocol: In order to select anti-CD300c monoclonal antibodies specifically binding, with high binding affinity, to a CD300c antigen, ELISA was performed using the library pool obtained by the same method as in Example 1.1. More specifically, each of a CD300c antigen and a CD300a antigen in a coating buffer (0.1 M sodium carbonate, pH 9.0) was dispensed into an ELISA plate at a concentration of 5 μg/mL per well, followed by incubation at room temperature for 3 hours, to allow the antigen to bind to the plate. The unbound antigens were removed by washing three times using phosphate buffered saline-Tween 20 (PBST), and then 350 μL of PBST supplemented with 2% bovine serum albumin (BSA) was added to each well, followed by incubation at room temperature for 1 hour and then washing again using PBST. Then, 25 μg of a periplasmic extract containing scFv obtained by the same method as in Example 1.1 was added thereto, followed by incubation for 1 hour at room temperature for antigen binding. After 1 hour, the unbound scFv was removed by washing three times using PBST, and then 4 μg/mL of an antibody for detection was added, followed by incubation again at room temperature for 1 hour. Subsequently, the unbound antibodies for detection were removed using PBST, and then HRP-conjugated anti-rabbit IgG was added, followed by incubation at room temperature for 1 hour. The unbound antibodies were removed again using PBST. Subsequently, 3,3′,5,5′-tetramethylbenzidine (TMB) solution was added, followed by incubation for 10 minutes for development. Then, 2 N sulfuric acid solution was added to terminate the development reaction, and the absorbance was measured at 450 nm to identify the antibodies specifically binding to the CD300c antigen.

B1: SL18 (antibody, V domains shown)
VH: RVQLLESGGGLVQPGGSLRLSCAASGFTFSDYHMHWVRQAPGKGLEWVSTISSSGGYTYYAESVKSRFTISRDNSKNTLYLQMNSLRAEDTAVYYCARSIRLPLDYWGQGTLVTVSS
VL: QSVLTQPPSASGTPGQRVTISCSGNNIGSKGVHWYQQLPGTAPKLLIYEDSKRPSGVRDRFSGSKSGTSASLAISGLRSEDEADYYCQSYDSTKGVVFGGGTKLTVL
notes: also called anti-CD300c monoclonal antibody SL18; CB301 antibody SL18
cancer cell proliferation inhibitory effect, CT26 mouse colon cancer cells, 10 ug/mL antibody, 5 days, CCK-8 (mouse CD300c): 38% | EC50 [1]: 0.17 µg/mL

B2: CL10 (antibody, V domains shown)
VH: EVQLLESGGGLVQPGGSLRLSCAASGFTFSSYGMHWVRQAPGKGLEWVSAISGSGGSTYYADSVKGRFTISRDNSKNTLYLQMNSLRAEDTAVYYCASGYGLMDVWGQGTLVTVSS
VL: QSVLTQPPSASGTPGQRVTISCTRSSGIIASNYVQWYQQLPGTAPKLLIYRNNQRPSGVPDRFSGSKSGTSASLAISGLRSEDEADYYCSSYAGNNNLVFGGGTKLTVL
notes: also called anti-CD300c monoclonal antibody CL10; CB301 antibody CL10
cancer cell proliferation inhibitory effect, CT26 mouse colon cancer cells, 10 ug/mL antibody, 5 days, CCK-8 (mouse CD300c): 15% | EC50 [1]: 0.039 µg/mL

Second part, the binder after the results:

binding result [2]: binds
B3: CB301_OPALTL_E6 (antibody, V domains shown)
VH: B2 VH with S57Y, S98R, G99W, Y100H, G101Y, L102S, M103F, V105Y
VL: QSVLTQPPSASGTPGQRVTISCSGSSSNIGNNYVSWYQQLPGTAPKLLIYRNNQRPSGVPDRFSGSKSGTSASLAISGLRSEDEADYYCQSYDNSNVLFGGGTKLTVL

binding result [2]: binds
B4: CB301_OPALTL_B5 (antibody, V domains shown)
VH: EVQLLESGGGLVQPGGSLRLSCAASGFTFSHYAMSWVRQAPGKGLEWVSAISGSGGSTYYADSVKGRFTISRDNSKNTLYLQMNSLRAEDTAVYYCARGWDSPTLTYFDSWGQGTLVTVSS
VL: QSVLTQPPSASGTPGQRVTISCSGTSSNIGNNDVSWYQQLPGTAPKLLIYQDTKRPSGVPDRFSGSKSGTSASLAISGLRSEDEADYYCAAWDDSLSGPVFGGGTKLTVL
